Earlier results as cited in article PMC2853182.

Target: Protective antigen (PA) (Bacillus anthracis) (UniProt P13423)

CMG2 soluble domain (from UniProt P58335)
Kd: 2 nM
